Laboratory results as given in patent US20120208867, “HMGB1 BINDING NUCLEIC ACID MOLECULE AND APPLICATIONS THEREOF” (published 2012).

Target: T1, His-tagged HMGB1 (UniProt P09429 P09429:1-215)
Test: SPR; 150 nM protein
Conditions: tags: N-terminal His-tag
Procedure: (§1) The ability of each of the aforementioned RNA aptamers to bind to HMGB1 in which His-tag was added to the N-terminus (His-tag-added HMGB1) was examined. For the analysis of the aforementioned binding ability, a BIACORE (registered trademark) X (manufactured by GE Healthcare) was used according to its instruction manual.
(§2) First, a sensor chip (trade name: Sensor Chip SA, manufactured by GE Heathcare) specially made for a BIACORE was set on the aforementioned BLACORE (registered trademark) X. Biotinylate deoxythymidine (5 μmol/L) was injected into the flow cell 2 of the aforementioned sensor chip using a running buffer and subjected to binding until the signal intensity (RU: resonance unit) reached about 1000 RU. For the aforementioned biotinylated deoxythymidine, 20-base-long deoxythymidine in which the 5′ end was biotinylated was used. Then, 10 μg/mL of an RNA aptamer was injected at a flow rate of 20 μL/min for 1 min into the aforementioned flow cells 1 and 2 of the aforementioned chip using a running buffer and subjected to binding until the signal intensity reached about 1000 RU. Next, […] for 30 sec using the aforementioned running buffer, and under the same conditions the aforementioned running buffer was allowed to flow continuously for washing. Simultaneously with the injection of the aforementioned His-tag-added HMGB1 and washing with the aforementioned running buffer, signal intensity was measured. The aforementioned running buffer was composed of 20 mmol/L of HEPES, 500 mmol/L of NaCl, 0.1 mmol/L of MgCl₂, and 0.1% Triton X-100 (registered trademark), with the pH thereof being 7.2. As a blocking agent for suppressing nonspecific binding, tRNA was used in a concentration of 1 mg/mL. In a comparative example, signal intensity was measured in the same manner except that the aforementioned comparative example RNA was used in place of the aforementioned example RNA aptamers.

T1 sequence (P09429 whole entry, one chain of several): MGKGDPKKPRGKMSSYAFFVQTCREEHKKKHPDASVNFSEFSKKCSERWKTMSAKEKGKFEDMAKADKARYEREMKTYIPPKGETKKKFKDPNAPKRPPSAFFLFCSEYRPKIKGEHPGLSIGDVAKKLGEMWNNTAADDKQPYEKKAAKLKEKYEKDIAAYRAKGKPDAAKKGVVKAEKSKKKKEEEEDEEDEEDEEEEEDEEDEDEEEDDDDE

Binding result, binds:
GGGUAAGACACGUAGCACCAGUGUGCCUGGAGUGCAGU (ssRNA, 2'-F on all C and U) [2'F-R8c6_1-25-S6C2]
GGGAGACACGUAGCACCAGUGUGCCUGGACGUGCAGU (ssRNA, 2'-F on all C and U) [2'F-R8c6_1-27-S6]
GGGAGUAAGACACGUAGCACCAGUGCCUGGACGUGCAGU (ssRNA) [R8c6_1-23-S8]
GGGAGUAAGACACGUAGCACCAGUGCCUGGACGUGCAGU (ssRNA, 2'-F on all C and U) [2'F-R8c6_1-23-S8]
GGGCAGUAAGACACGUAGCACCAGUGUGCCUGGACGUGCAGU (ssRNA) [R8c6_1-22-S6]
GGGCAGUAAGACACGUAGCACCAGUGUGCCUGGACGUGCAGU (ssRNA, 2'-F on all C and U) [2'F-R8c6_1-22-S6]
GGGACAGUAAGACACGUAGCACCAGUGCCUGGACGUGCAGU (ssRNA) [R8c6_1-21-S8]
GGGGUAAGACACGUAGCACCAGUGCCUGGACGUGCAGU (ssRNA) [R8c6_1-24-S8]
GGGGUAAGACACGUAGCACCAGUGCCUGGACGUGCAGU (ssRNA, 2'-F on all C and U) [2'F-R8c6_1-24-S8]
GGGUAAGACACGUAGCACCAGUGUGCCUGGACGUGCAGU (ssRNA, 2'-F on all C and U) [2'F-R8c6_1-25-S6]
GGGUAAGACACGUAGCACCGUGUGCCGGACGUGCAGU (ssRNA, 2'-F on all C and U) [2'F-R8c6_1-25-S6A2]
GGGUAAGACACGUAGAACCAGUGACUGGAAGUGCAGU (ssRNA, 2'-F on all C and U) [2'F-R8c6_1-25-S8CA]
GGGUAAGACACGUAGAACCAGUGACUGGAAGUGCAGU (ssRNA) [R8c6_1-25-S8CA]
GGGUAAGACACGUAGCACCAGUGCCUGGACGUGCAGU (ssRNA, 2'-F on all C and U) [2'F-R8c6_1-25-S8]
GGGCAGUAAGACACGUAGCACCAGUGCCUGGACGUGCAGU (ssRNA) [R8c6_1-22-S8]
GGGCAGUAAGACACGUAGCACCAGUGCCUGGACGUGCAGU (ssRNA, 2'-F on all C and U) [2'F-R8c6_1-22-S8]
GGGGUAAGACACGUAGCACCAGUGUGCCUGGACGUGCAGU (ssRNA) [R8c6_1-24-S6]
GGGGUAAGACACGUAGCACCAGUGUGCCUGGACGUGCAGU (ssRNA, 2'-F on all C and U) [2'F-R8c6_1-24-S6]
GGGUAAGACACGUAGACCAGUGUGCCUGGACGUGCAGU (ssRNA, 2'-F on all C and U) [2'F-R8c6_1-25-S6C]
GGGAGUAAGACACGUAGCACCAGUGUGCCUGGACGUGCAGU (ssRNA) [R8c6_1-23-S6]
GGGAGUAAGACACGUAGCACCAGUGUGCCUGGACGUGCAGU (ssRNA, 2'-F on all C and U) [2'F-R8c6_1-23-S6]
GGGAAGACACGUAGCACCAGUGUGCCUGGACGUGCAGU (ssRNA, 2'-F on all C and U) [2'F-R8c6_1-26-S6]
GGGUAAGCACGUAGCACCAGUGUGCCUGGACGUGCAGU (ssRNA, 2'-F on all C and U) [2'F-R8c6_1-25-S6A]
GGGACAGUAAGACACGUAGCACCAGUGUGCCUGGACGUGCAGU (ssRNA) [R8c6_1-21-S6]

Target: T1, His-tagged HMGB1
Test: SPR; 160 nM protein
Conditions: tags: N-terminal His-tag
Procedure: as §1, §2

Binding result, binds:
GGGUAAGACACGUAGCACCAGUGUGCCUGGAGUGCAGU (ssRNA) [R8c6_1-25-S6C2]
GGGAGACACGUAGCACCAGUGUGCCUGGACGUGCAGU (ssRNA) [R8c6_1-27-S6]
GGGUAAGACACGUAGCACCAGUGUGCCUGGACGUGCGU (ssRNA) [R8c6_1-25-S6A3]
GGGUAAGACACGUAGCACCAGUGUGCCUGGACGUGCAGU (ssRNA) [R8c6_1-25-S6]
GGGUAAGACACGUAGCACCGUGUGCCGGACGUGCAGU (ssRNA) [R8c6_1-25-S6A2]
GGGUAAGACACGUAGCACCAGUGCCUGGACGUGCAGU (ssRNA) [R8c6_1-25-S8]
GGGUAAGACACGUAGACCAGUGUGCCUGGACGUGCAGU (ssRNA) [R8c6_1-25-S6C]
GGGUAAGCACGUAGCACCAGUGUGCCUGGACGUGCAGU (ssRNA) [R8c6_1-25-S6A]
GGGAAGACACGUAGCACCAGUGUGCCUGGACGUGCAGU (ssRNA) [R8c6_1-26-S6]
